These results are taken from the array DNA melting data of Ke et al..

The nature of the data set: melting temperature; melt of duplexes. The settings on record: sodium 0.0675 M; strand 1 µM.
On to “CGACGTGCGCGATGTGCTG+CAGCACATCGAGCACGTCG ((((((((.((((((((((+)))))))))).))))))))”, for which the Tm (usually the temperature at the midpoint of the melting transition) is 63.1 °C.

Regarding “CGACGTGCGTGATGTGCTG+CAGCACATATCGCACGTCG (((((((((..((((((((+))))))))..)))))))))”, the Tm was found to be 54.6 °C.

Regarding “CGACGTGCTGGATGTGCTG+CAGCACATGGCGCACGTCG ((((((((...((((((((+))))))))...))))))))”, the Tm is 49.6 °C.

For the substance “CGACGTGCATGATGTGCTG+CAGCACATCAAGCACGTCG ((((((((.((((((((((+)))))))))).))))))))”, the melting temperature (Tm) came to 56.5 °C.

“CGACGTGCGACATGTGCTG+CAGCACATCCGGCACGTCG ((((((((...((((((((+))))))))...))))))))”: the Tm amounted to 48.9 °C.

With “CGACGTGCCTCATGTGCTG+CAGCACATTACGCACGTCG ((((((((.(.((((((((+)))))))).).))))))))”, the Tm came out at 46.4 °C.

In the case of “CGACGTGCGGGATGTGCTG+CAGCACATGCGGCACGTCG ((((((((.(.((((((((+)))))))).).))))))))”, the Tm was 55.4 °C.

Turning to “CGACGTGCGCGATGTGCTG+CAGCACATATAGCACGTCG ((((((((...((((((((+))))))))...))))))))”, the Tm stood at 51.8 °C.

Turning to “CGACGTGCCGTATGTGCTG+CAGCACATTCGGCACGTCG ((((((((((.((((((((+)))))))).))))))))))”, the Tm came to 59.9 °C.

With “CGACGTGCCGTATGTGCTG+CAGCACATGACGCACGTCG ((((((((...((((((((+))))))))...))))))))”, the Tm was found to be 47.8 °C.

Take “CGACGTGCTCCATGTGCTG+CAGCACATGGGGCACGTCG ((((((((.((((((((((+)))))))))).))))))))”: the Tm worked out at 61.9 °C.

Turning to “CGACGTGCTCAATGTGCTG+CAGCACATATCGCACGTCG ((((((((...((((((((+))))))))...))))))))”, the Tm was 47.5 °C.

Take “CGACGTGCACCATGTGCTG+CAGCACATCGAGCACGTCG ((((((((.(.((((((((+)))))))).).))))))))”: the melting temperature (Tm) was determined as 45.7 °C.

Consider “CGACGTGCGAGATGTGCTG+CAGCACATCACGCACGTCG (((((((((.(((((((((+))))))))).)))))))))”, for which the Tm is 61.4 °C.

Turning to “CGACGTGCGCCATGTGCTG+CAGCACATTCAGCACGTCG ((((((((...((((((((+))))))))...))))))))”, the Tm was 49.8 °C.

As to “CGACGTGCTTAATGTGCTG+CAGCACATCGTGCACGTCG ((((((((...((((((((+))))))))...))))))))”, the Tm came to 43.3 °C.

In the case of “CGACGTGCTTCATGTGCTG+CAGCACATGACGCACGTCG ((((((((.((((((((((+)))))))))).))))))))”, the Tm came to 55.1 °C.

On to “CGACGTGCGACATGTGCTG+CAGCACATTCTGCACGTCG ((((((((...((((((((+))))))))...))))))))”, for which the Tm amounted to 51.3 °C.

As for “CGACGTGCCTTATGTGCTG+CAGCACATTAGGCACGTCG ((((((((((.((((((((+)))))))).))))))))))”, the Tm was determined as 58 °C.

On to “CGACGTGCCCAATGTGCTG+CAGCACATCCCGCACGTCG ((((((((...((((((((+))))))))...))))))))”, for which the Tm is 47.9 °C.

In the case of “CGACGTGCGCCATGTGCTG+CAGCACATGTAGCACGTCG ((((((((..(((((((((+)))))))))..))))))))”, the Tm is 55.1 °C.

Regarding “CGACGTGCGCAATGTGCTG+CAGCACATCTAGCACGTCG ((((((((...((((((((+))))))))...))))))))”, the Tm came to 51.8 °C.

As to “CGACGTGCGGAATGTGCTG+CAGCACATGGTGCACGTCG ((((((((...((((((((+))))))))...))))))))”, the Tm amounted to 52.2 °C.

In the case of “CGACGTGCACGATGTGCTG+CAGCACATTCCGCACGTCG ((((((((...((((((((+))))))))...))))))))”, the Tm came to 44.5 °C.

On to “CGACGTGCTAGATGTGCTG+CAGCACATGCTGCACGTCG ((((((((...((((((((+))))))))...))))))))”, for which the Tm turned out to be 49.3 °C.

Consider “CGACGTGCCATATGTGCTG+CAGCACATGGGGCACGTCG (((((((((..((((((((+))))))))..)))))))))”, for which the Tm was found to be 56.7 °C.

As for “CGACGTGCCGTATGTGCTG+CAGCACATATAGCACGTCG ((((((((..(((((((((+)))))))))..))))))))”, the Tm stood at 52.1 °C.

Consider “CGACGTGCTCGATGTGCTG+CAGCACATATGGCACGTCG ((((((((...((((((((+))))))))...))))))))”, for which the Tm turned out to be 50.5 °C.

Take “CGACGTGCTAGATGTGCTG+CAGCACATCCGGCACGTCG ((((((((..(((((((((+)))))))))..))))))))”: the Tm was 55.4 °C.

As to “CGACGTGCGCGATGTGCTG+CAGCACATGAAGCACGTCG ((((((((...((((((((+))))))))...))))))))”, the midpoint of thermal melting (Tm) worked out at 54.4 °C.

Consider “CGACGTGCCGCATGTGCTG+CAGCACATGCAGCACGTCG ((((((((.((((((((((+)))))))))).))))))))”, for which the Tm came out at 60 °C.

For “CGACGTGCGGCATGTGCTG+CAGCACATCCAGCACGTCG ((((((((.(.((((((((+)))))))).).))))))))”, the Tm was 53.9 °C.

Turning to “CGACGTGCGTAATGTGCTG+CAGCACATGGCGCACGTCG (((((((((..((((((((+))))))))..)))))))))”, the Tm stood at 57.2 °C.

For the substance “CGACGTGCCTCATGTGCTG+CAGCACATCCAGCACGTCG ((((((((...((((((((+))))))))...))))))))”, the Tm is 47.4 °C.

Turning to “CGACGTGCGGCATGTGCTG+CAGCACATGTGGCACGTCG ((((((((..(((((((((+)))))))))..))))))))”, the Tm turned out to be 56.8 °C.

As for “CGACGTGCGGTATGTGCTG+CAGCACATTGCGCACGTCG (((((((((..((((((((+))))))))..)))))))))”, the midpoint of thermal melting (Tm) is 55.4 °C.

As for “CGACGTGCGAAATGTGCTG+CAGCACATTGGGCACGTCG ((((((((..(((((((((+)))))))))..))))))))”, the Tm turned out to be 54.5 °C.

On to “CGACGTGCGAAATGTGCTG+CAGCACATACCGCACGTCG (((((((((..((((((((+))))))))..)))))))))”, for which the Tm worked out at 53.9 °C.

For “CGACGTGCCGCATGTGCTG+CAGCACATGTGGCACGTCG (((((((((.(((((((((+))))))))).)))))))))”, the Tm was found to be 62.9 °C.

For “CGACGTGCTCTATGTGCTG+CAGCACATGCGGCACGTCG ((((((((...((((((((+))))))))...))))))))”, the Tm is 48.5 °C.

Regarding “CGACGTGCCAAATGTGCTG+CAGCACATTGAGCACGTCG ((((((((..(((((((((+)))))))))..))))))))”, the Tm came to 53.9 °C.

Take “CGACGTGCCAAATGTGCTG+CAGCACATGGAGCACGTCG ((((((((...((((((((+))))))))...))))))))”: the Tm came to 52.4 °C.

For the substance “CGACGTGCCTGATGTGCTG+CAGCACATTTCGCACGTCG ((((((((...((((((((+))))))))...))))))))”, the Tm amounted to 48.2 °C.

As for “CGACGTGCCCCATGTGCTG+CAGCACATCCGGCACGTCG (((((((((..((((((((+))))))))..)))))))))”, the Tm is 51.4 °C.

As for “CGACGTGCGTGATGTGCTG+CAGCACATTGCGCACGTCG (((((((((..((((((((+))))))))..)))))))))”, the Tm worked out at 58 °C.

For the substance “CGACGTGCCTCATGTGCTG+CAGCACATAAGGCACGTCG ((((((((((.((((((((+)))))))).))))))))))”, the Tm turned out to be 56.2 °C.

Turning to “CGACGTGCAATATGTGCTG+CAGCACATCAGGCACGTCG ((((((((...((((((((+))))))))...))))))))”, the Tm was found to be 48.7 °C.

As to “CGACGTGCCGTATGTGCTG+CAGCACATATTGCACGTCG ((((((((..(((((((((+)))))))))..))))))))”, the Tm stood at 51.5 °C.

“CGACGTGCGGCATGTGCTG+CAGCACATCGGGCACGTCG ((((((((...((((((((+))))))))...))))))))”: the Tm was determined as 49.6 °C.

“CGACGTGCTACATGTGCTG+CAGCACATACCGCACGTCG ((((((((...((((((((+))))))))...))))))))”: the Tm stood at 47.5 °C.

Turning to “CGACGTGCTATATGTGCTG+CAGCACATCGCGCACGTCG ((((((((...((((((((+))))))))...))))))))”, the Tm was 46.6 °C.

For the substance “CGACGTGCTGAATGTGCTG+CAGCACATGCTGCACGTCG ((((((((.(.((((((((+)))))))).).))))))))”, the melting temperature (Tm) stood at 53.5 °C.

Consider “CGACGTGCGGGATGTGCTG+CAGCACATGTAGCACGTCG ((((((((...((((((((+))))))))...))))))))”, for which the Tm is 53.7 °C.

Consider “CGACGTGCAGGATGTGCTG+CAGCACATTTAGCACGTCG ((((((((...((((((((+))))))))...))))))))”, for which the Tm worked out at 50.3 °C.

Take “CGACGTGCGCAATGTGCTG+CAGCACATCTCGCACGTCG (((((((((..((((((((+))))))))..)))))))))”: the Tm was found to be 52.8 °C.

As to “CGACGTGCACGATGTGCTG+CAGCACATAGCGCACGTCG ((((((((.(.((((((((+)))))))).).))))))))”, the Tm is 50.3 °C.

In the case of “CGACGTGCTCGATGTGCTG+CAGCACATCTGGCACGTCG ((((((((..(((((((((+)))))))))..))))))))”, the Tm is 54.3 °C.

Regarding “CGACGTGCTGGATGTGCTG+CAGCACATATGGCACGTCG ((((((((...((((((((+))))))))...))))))))”, the Tm was determined as 52.7 °C.

“CGACGTGCTAAATGTGCTG+CAGCACATTGTGCACGTCG ((((((((..(((((((((+)))))))))..))))))))”: the Tm is 50.7 °C.

On to “CGACGTGCCCGATGTGCTG+CAGCACATGCCGCACGTCG ((((((((...((((((((+))))))))...))))))))”, for which the Tm stood at 48.1 °C.

“CGACGTGCATAATGTGCTG+CAGCACATGGTGCACGTCG (((((((((..((((((((+))))))))..)))))))))”: the melting temperature (Tm) turned out to be 52.6 °C.

For “CGACGTGCCGCATGTGCTG+CAGCACATTGAGCACGTCG ((((((((...((((((((+))))))))...))))))))”, the Tm stood at 49.5 °C.

With “CGACGTGCCGGATGTGCTG+CAGCACATTCCGCACGTCG ((((((((.(.((((((((+)))))))).).))))))))”, the Tm is 54 °C.

As for “CGACGTGCAAAATGTGCTG+CAGCACATAGTGCACGTCG (((((((((..((((((((+))))))))..)))))))))”, the Tm is 47 °C.

For “CGACGTGCGATATGTGCTG+CAGCACATTATGCACGTCG ((((((((...((((((((+))))))))...))))))))”, the Tm amounted to 52.2 °C.

As to “CGACGTGCAGAATGTGCTG+CAGCACATTGCGCACGTCG ((((((((..(((((((((+)))))))))..))))))))”, the Tm stood at 52.1 °C.
